Data: patent US20170240619A1

Experiments:
[1] = target: HER2 on SK-BR-3 human breast cancer cells (human) (UniProt P04626); assay: flow cytometry on SK-BR-3 cells, human IgG1, anti-human IgG-FITC detection
[2] = target: Biotinylated HER2 extracellular domain (human) (UniProt P04626); assay: SPR (BIAcore), biotinylated HER2 ECD on streptavidin chip, scFv injected, 1:1 Langmuir fit

| EC50 [1] [µg/mL] | Kd [2] [nM] | koff [2] [s⁻¹] | kon [2] [M⁻¹ s⁻¹] | Substance |
| --- | --- | --- | --- | --- |
| 0.925 | – | – | – | 4D5 as human IgG1, VL 52D (WT/52D) (antibody) |
| – | 7.6 | 0.00091 | 120000 | 4D5-b (4D5 scFv, VL 52D) |
